Source: patent US20200087373A1 (UNIVERSITY OF COPENHAGEN, published 2020)
Ends that are not written are not given here. * marks the point of attachment. C16 diacid = O=C(O)CCCCCCCCCCCCCCC(=O)*

T1: human GIP receptor (human, UniProt P48546 22-466)
T1 construct: whole, on cells; Transiently transfected COS-7 cells expressing the human GIP receptor; also called hGIPR
T1 sequence (looked up): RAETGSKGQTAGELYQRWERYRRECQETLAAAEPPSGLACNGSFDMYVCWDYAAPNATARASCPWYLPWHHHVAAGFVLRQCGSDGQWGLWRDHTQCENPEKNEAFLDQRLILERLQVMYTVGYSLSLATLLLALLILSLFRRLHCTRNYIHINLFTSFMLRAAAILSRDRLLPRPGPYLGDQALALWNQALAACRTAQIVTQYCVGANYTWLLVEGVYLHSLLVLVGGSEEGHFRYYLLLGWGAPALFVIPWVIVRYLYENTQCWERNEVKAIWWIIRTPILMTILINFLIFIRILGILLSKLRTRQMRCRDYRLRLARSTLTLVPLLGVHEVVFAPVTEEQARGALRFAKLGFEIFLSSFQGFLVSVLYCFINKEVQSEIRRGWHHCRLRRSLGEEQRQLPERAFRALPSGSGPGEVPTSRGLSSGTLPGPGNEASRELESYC


What was measured:
human GIP receptor [1] = target: T1, human GIP receptor; assay: 125I-hGIP(1-42) competition binding, COS-7 cells expressing human GIPR, with 2% HSA;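 further: nonspecific signal taken as radioligand bound to untransfected cells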
Description: (§1) After incubation, the cells were washed twice in ice-cold binding buffer (+/−2% HSA) and lysed using 200 mM NaOH with 1% SDS for 30 min. Nonspecific binding was determined as the binding of radioactive ligand to untransfected cells.

human GIP receptor [2] = target: T1, human GIP receptor; assay: 125I-hGIP(1-42) competition binding, COS-7 cells expressing human GIPR, without HSA;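 further: nonspecific binding defined as radioligand bound to cells lacking the transfected receptor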
Description: as §1

human GIP receptor [3] = target: T1, human GIP receptor; assay: ratio of Ki with 2% HSA to Ki without HSA, 125I-hGIP competition binding on hGIPR COS-7 cells;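 further: nonspecific binding was defined as radioligand signal on cells lacking the receptor transfection, with cell lysates measured after washes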
Description: as §1

human GIP receptor [4] = target: T1, human GIP receptor; assay: cell-based or functional assay

| Binder | Ki (human GIP receptor [1]) | Ki (human GIP receptor [2]) | Fold (Ki + HSA / Ki - HSA) (human GIP receptor [3]) | cAMP accumulation Fold (fold change from GIP(5-30)NH2) (human GIP receptor [4]) | cAMP accumulation IC50 (human GIP receptor [4]) | cAMP accumulation logIC50 (human GIP receptor [4]) |
| --- | --- | --- | --- | --- | --- | --- |
| {C16 diacid}-TFISDYSIAMDKIHQQDFVNWLLAQK-NH2 (SMILES CC[C@H](C)[C@H](NC(=O)[C@H](CO)NC(=O)[C@H](Cc1ccc(O)cc1)NC(=O)[C@H](CC(=O)O)NC(=O)[C@H](CO)NC(=O)[C@@H](NC(=O)[C@H](Cc1ccccc1)NC(=O)[C@@H](NC(=O)CCCCCCCCCCCCCCC(=O)O)[C@@H](C)O)[C@@H](C)CC)C(=O)N[C@@H](C)C(=O)N[C@@H](CCSC)C(=O)N[C@@H](CC(=O)O)C(=O)N[C@@H](CCCCN)C(=O)N[C@H](C(=O)N[C@@H](Cc1c[nH]cn1)C(=O)N[C@@H](CCC(N)=O)C(=O)N[C@@H](CCC(N)=O)C(=O)N[C@@H](CC(=O)O)C(=O)N[C@@H](Cc1ccccc1)C(=O)N[C@H](C(=O)N[C@@H](CC(N)=O)C(=O)N[C@@H](Cc1c[nH]c2ccccc12)C(=O)N[C@@H](CC(C)C)C(=O)N[C@@H](CC(C)C)C(=O)N[C@@H](C)C(=O)N[C@@H](CCC(N)=O)C(=O)N[C@@H](CCCCN)C(N)=O)C(C)C)[C@@H](C)CC) [AT137 [hGIP(5-30)NH2-C16diacid/5]] | 0.117 µM | 59.3 nM | 2 fold | 3.7 fold | 102 nM | -6.99 log(M) |
| TFISDYSIAMDKIHQQDFVNWK(C16 diacid)LAQK-NH2 (N-terminus assumed; SMILES CC[C@H](C)[C@H](NC(=O)[C@H](CO)NC(=O)[C@H](Cc1ccc(O)cc1)NC(=O)[C@H](CC(=O)O)NC(=O)[C@H](CO)NC(=O)[C@@H](NC(=O)[C@H](Cc1ccccc1)NC(=O)[C@@H](N)[C@@H](C)O)[C@@H](C)CC)C(=O)N[C@@H](C)C(=O)N[C@@H](CCSC)C(=O)N[C@@H](CC(=O)O)C(=O)N[C@@H](CCCCN)C(=O)N[C@H](C(=O)N[C@@H](Cc1c[nH]cn1)C(=O)N[C@@H](CCC(N)=O)C(=O)N[C@@H](CCC(N)=O)C(=O)N[C@@H](CC(=O)O)C(=O)N[C@@H](Cc1ccccc1)C(=O)N[C@H](C(=O)N[C@@H](CC(N)=O)C(=O)N[C@@H](Cc1c[nH]c2ccccc12)C(=O)N[C@@H](CCCCNC(=O)CCCCCCCCCCCCCCC(=O)O)C(=O)N[C@@H](CC(C)C)C(=O)N[C@@H](C)C(=O)N[C@@H](CCC(N)=O)C(=O)N[C@@H](CCCCN)C(N)=O)C(C)C)[C@@H](C)CC) [AT186 [hGIP(5-30)NH2[L26K]-C16diacid/26]] | 0.83 µM | 105 nM | 7.9 fold | 2.6 fold | 70.8 nM | -7.15 log(M) |
| TFISDYSIAMDKIHQQDFVNWLK(C16 diacid)AQK-NH2 (N-terminus assumed; SMILES CC[C@H](C)[C@H](NC(=O)[C@H](CO)NC(=O)[C@H](Cc1ccc(O)cc1)NC(=O)[C@H](CC(=O)O)NC(=O)[C@H](CO)NC(=O)[C@@H](NC(=O)[C@H](Cc1ccccc1)NC(=O)[C@@H](N)[C@@H](C)O)[C@@H](C)CC)C(=O)N[C@@H](C)C(=O)N[C@@H](CCSC)C(=O)N[C@@H](CC(=O)O)C(=O)N[C@@H](CCCCN)C(=O)N[C@H](C(=O)N[C@@H](Cc1c[nH]cn1)C(=O)N[C@@H](CCC(N)=O)C(=O)N[C@@H](CCC(N)=O)C(=O)N[C@@H](CC(=O)O)C(=O)N[C@@H](Cc1ccccc1)C(=O)N[C@H](C(=O)N[C@@H](CC(N)=O)C(=O)N[C@@H](Cc1c[nH]c2ccccc12)C(=O)N[C@@H](CC(C)C)C(=O)N[C@@H](CCCCNC(=O)CCCCCCCCCCCCCCC(=O)O)C(=O)N[C@@H](C)C(=O)N[C@@H](CCC(N)=O)C(=O)N[C@@H](CCCCN)C(N)=O)C(C)C)[C@@H](C)CC) [AT187 [hGIP(5-30)NH2[L27K]-C16diacid/27]] | 3300 µM | 182000 nM | 18.2 fold | 67.6 fold | 1860 nM | -5.73 log(M) |
| TFISDYSIAMDKIHQQDFVNWLLAK(C16 diacid)K-NH2 (N-terminus assumed; SMILES CC[C@H](C)[C@H](NC(=O)[C@H](CO)NC(=O)[C@H](Cc1ccc(O)cc1)NC(=O)[C@H](CC(=O)O)NC(=O)[C@H](CO)NC(=O)[C@@H](NC(=O)[C@H](Cc1ccccc1)NC(=O)[C@@H](N)[C@@H](C)O)[C@@H](C)CC)C(=O)N[C@@H](C)C(=O)N[C@@H](CCSC)C(=O)N[C@@H](CC(=O)O)C(=O)N[C@@H](CCCCN)C(=O)N[C@H](C(=O)N[C@@H](Cc1c[nH]cn1)C(=O)N[C@@H](CCC(N)=O)C(=O)N[C@@H](CCC(N)=O)C(=O)N[C@@H](CC(=O)O)C(=O)N[C@@H](Cc1ccccc1)C(=O)N[C@H](C(=O)N[C@@H](CC(N)=O)C(=O)N[C@@H](Cc1c[nH]c2ccccc12)C(=O)N[C@@H](CC(C)C)C(=O)N[C@@H](CC(C)C)C(=O)N[C@@H](C)C(=O)N[C@@H](CCCCNC(=O)CCCCCCCCCCCCCCC(=O)O)C(=O)N[C@@H](CCCCN)C(N)=O)C(C)C)[C@@H](C)CC) [AT189 [hGIP(5-30)NH2[Q29K]-C16diacid/29]] | 0.276 µM | 85.5 nM | 3.2 fold | 3 fold | 83.2 nM | -7.08 log(M) |
| TFISDYSIAMDKIHQQDFVNWLLK(C16 diacid)QK-NH2 (N-terminus assumed; SMILES CC[C@H](C)[C@H](NC(=O)[C@H](CO)NC(=O)[C@H](Cc1ccc(O)cc1)NC(=O)[C@H](CC(=O)O)NC(=O)[C@H](CO)NC(=O)[C@@H](NC(=O)[C@H](Cc1ccccc1)NC(=O)[C@@H](N)[C@@H](C)O)[C@@H](C)CC)C(=O)N[C@@H](C)C(=O)N[C@@H](CCSC)C(=O)N[C@@H](CC(=O)O)C(=O)N[C@@H](CCCCN)C(=O)N[C@H](C(=O)N[C@@H](Cc1c[nH]cn1)C(=O)N[C@@H](CCC(N)=O)C(=O)N[C@@H](CCC(N)=O)C(=O)N[C@@H](CC(=O)O)C(=O)N[C@@H](Cc1ccccc1)C(=O)N[C@H](C(=O)N[C@@H](CC(N)=O)C(=O)N[C@@H](Cc1c[nH]c2ccccc12)C(=O)N[C@@H](CC(C)C)C(=O)N[C@@H](CC(C)C)C(=O)N[C@@H](CCCCNC(=O)CCCCCCCCCCCCCCC(=O)O)C(=O)N[C@@H](CCC(N)=O)C(=O)N[C@@H](CCCCN)C(N)=O)C(C)C)[C@@H](C)CC) [AT188 [hGIP(5-30)NH2[A28K]-C16diacid/28]] | 0.462 µM | 144 nM | 3.2 fold | 6.8 fold | 186 nM | -6.73 log(M) |
